The data set can be described thus: label from the status in PepcDB records.

“MLNSHPKKTQSLYRAGLVVLQITESLLILALLYQAINKLIFINNYSIKFMLTFILYSPEFFMANLTTYYFIYEKFKILHSIIVITKLFQIILTLLLFILGFIFKIYVYQTSLAIILGITVVYLVFNVTILVLIKAKIKNLE”: the protein production entry is “failed”.

On to “MLNYRQLHYFWVVAKTGSIVRACEQLNLTAQTVSGQISLLEAALGVDLFQRVGRRLEMTEAGRLALPYAEQMFQLGDELESLLRSQPDEQQLLLRIGVADVVPKSIVYRLIAPTMELAEPIRITCREDKLERLLADLAIQRLDLVISDSPMPPHLDIKGYSQKLGECGVTFFATREVAERVGSDFPQCLHGAPLLIPGQETVVRGRLMRWFAEQKIQPRIIGEFDDSALMKAFGKSGSGIFVAPSVIVDEVQGQYGVQVIGQTDAVTESFYAITVERKVRHPGVVAIAESARNQLFTDAG”, for which the protein production entry is reported as “failed”.

“MLPAEYNVLVDYTGASTFTTFFFLLFFYVLDCYNVGHEDVRDSIARVSVASVLGIIFTGFTFYSFEHWRFERTTFVVLLLLVVGMTLLWRMVYHRFGQRFTTRPRVVLVGVDRAGRVRKLLNEGMPEAEILGYVGEGDVDPDAGPCLGAPYEPVEIARRYGATMLVMLPDAPVDEDIARDLLDAKLRGLMVVDIRTLYEHVAKRIPVDQIRDEWLLTEDGFNLNTQGSVRRLKRAFDVIVSLSLLITTAPIMLVAAIAIRMESPGPVIYRQKRVGINEQEFMVLKFRSMRTDAEKDGAVWATKGDSRVTRVGRFIRKVRIDELPQLWNVLRGDMSMIGPRPERMEFVRQLEKVIPYFYVRHSVKPGITGWAQVCYPYGASVEDARYKLEYDLYYIKNMSPLLDIQIVLKTVGVILFPKGAR”: the protein production entry was “failed”.

For the sequence “MLPDSSVRLNKYISESGICSRREADRYIEQGNVFLNGKRATIGDQVKPGDVVKVNGQLIEPREAEDLVLIALNKPVGIVSTTEDGERDNIVDFVNHSKRVFPIGRLDKDSQGLIFLTNHGDLVNKILRAGNDHEKEYLVTVDKPITDEFIRGMGAGVPILGTVTKKCKVKKEAPFVFRITLVQGLNRQIRRMCEHFGYEVKKLERTRIMNVSLSGIPLGEWRDLTDDELIDLFKLIENSSSEAKPKAKAKPKTAGIKRPVVKMEKTAEKGGRPASNGKRFTSPGRKKKGR”, the protein production result is reported as “not failed”.

“MLPDVQLLKPEVPIGLSRVGATGIKKLVEVQREGKRPIILISTFDVFVDLPAHLKGVNLSRNFEVIDEVLETLTAKPIENIEDLVVEIADHLLKRHEYATKAEARMNSELIMRKRTPKTGQRTQEVVKIFGEATLGRDGSKVIMVGVEVTGITACPCAQELVKASSAERLAKMGFDEETIQKILDAIPVATHNQRGRATLKVQVTDSFKVPIAKLIDVAKSSMSYETYEILKREDELAVVEAAHRNTRFVEDGVRYMAMELLKTFPNAPDDILVFLRQENEESIHQHNVVAERFA”: the protein production result was “failed”.

“MLPGVGVFGTSLTARVIIPLLKDEGFAVKALWGRTQEEAEELAKEMSVPFYTSRIDEVLLHQDVDLVCINLPPPLTRQIAVKTLGIGKNVICDRTATPLDAFRMTSAAHYYPKLMSIMGNVLRFLPAFVRMKQLIEEGYVGEPLVCEVQVHGGSLLGKKYNWSCDDLMGGGGLHSVGTYIIDLLTFLTGQKAVKVHGLLKTFVKQTDHIKGIRQITSDDFCTFQMVLEGGVCCTVTLNFNVPGEFKQDVTVVGSAGRLLAVGTDLYGQRNSAPEQELLVQDATPVSNSLLPEKAFSDIPSPYLRGTIKMMQAVRQAFQDQDDRRTWDGRPLTMAATFDDCLYALCVVDTIKRSSQTGEWQNIAIMTEEPELSPAYLISEAMRRSRMSLYC”: the protein production entry is on record as “failed”.

For the sequence “MLPLSLLKTAQGHPMLVELKNGETYNGHLVNCDTWMNIHLREVICTSKDGDRFWRMPECYIRGNTIKYLRVPDEVIDKVQEEKTRTDRKPPGVGRGRGRGVDDGGARGRGRGTSMGKMGGNRGAGRGRG”, the protein production result is on record as “failed”.

Consider “MLPPGMVAAESDFYLRRLWGLPHEDLKSEPRYLATFTVGINQKANIDACVKKFSENFTIVLFHYDGRVTEWDEFEWSKTAIHISVRKQTKWWYAKRFLHPDIVARYDYIFVWDEDLGVEHFNAEEYVKMVKKHGLEISQPGLEPNQGLTWQMTKRRGDMEVHKITEERPGWCSDPHLPPCAAYVEIMAPVFSRNAWRCVWHVIQNDLVHGWGLDFALRRCVEPAHEKIGVVDSQWVVHQSFPSLGNQGEATDGKAPWQGVRDRCKKEWTMFQSRMANAEKDYFKSLQVEGSSNSTATTI”, for which the protein production entry is given as “failed”.

“MLPQILIVILSLIEGLDPYKGLLFSYYFYSFKKVKESFVVPLLSTLSYYSLGILVVFFTFSSLQSSNSTKVIVIFLVIIHILMKMFLGKLLHYTGSMRVSVYNLVKSTFLNSILQMNVILLIILAIIVNTLFVFLPVGVFIVREVTYFIVLKKNNVLVLLTKFNFDYIYSVTLLILALAVLLQS”: the protein production result is given as “failed”.

Consider “MLPRVHRVRRGGTVYKYHRRTRKELPRDVPEDDPRFVAAWLAEEQRAPTVRSRSQAGTIAAACEAYLGSRSYRELSDGYRPVIRRHVERIKEQGEKALLKDLLPRHIRADLEPLSPPVASSRLKAWRKLAEFWLLKGMLDADPSEGVKRKKMGKVAGFTEWTAEDLEAFRARWPIGTAQRLALELYQWTGARCVDVIRLGPQMVGRDGVLTYVQQKTGNPAHVPWTCPAFGLEEQRADLMRCLPVGSPVYMLTEYGKPRTQKGVSQWFSAAAREAGLESRTAHGLRKYRMNALAEHGASVLVMQSWVGHTTLLEVQEYTRRADRRRVISGGHPVKRDPAGA”, for which the protein production entry is “failed”.

For “MLPSESTLLTNATILTGTGERINNGDILLVNGKVTQVGNNLSVEQATVIDMKGKWITPGIIDVHSHLGVYPNPEVLEHHHHHH”, the protein production result is on record as “not failed”.

Consider “MLPVASLLILVPLIFAVVTFFTKTKQLAAGFGFLGSLATLGLTLYAYLNFDSSTAAMQFYESVSWIPFLGVNYSVGIDGVSMPLILLNAIVIPFMILFTWKEEMESPNRFYGLILTMQAAVIGVFVALDFVVFYIFWELTLVPLFFIVNLWGGANRAHASYKFFIYTHVASLVMLLGIFGLFYTALNQTGVPTFDIRELIAQFQFFEPGLMKDGIFLAILFGFLAKLPAFPFHSWLPDAYSEAPTAGSILFILLKIGGYGLFRISLPMLPNTGSPQLMIMILGLLGSVSILYGALLALRQKDLKRMIAYSSLSHMGYVILGSAGLVTLSVSGAMFQQFSHGLIMSIMFMSAGAIQTAAGTRIINELGGLAKKMPMLTVAMMVGFMASLGLPGLTGFIAEFLVLTFTFTNLPVFVVIALLAIVVTAGYHLWAMQRAMFGVYNEKLGDVRDINSIQVFSMAVIALLVLYFGLNPSPVLDMMINNSEAIVSLAAGMGV”, for which the protein production entry is “failed”.

For the sequence “MLPVQILKDNAQEERGESARLSSFVGAIAIGDLVKSTLGPKGMDKILISGNPESAGGIKVTNDGATILKSIGVDNPAAKVLVDMSMTQDHEVGDGTTSVTVLAAELLKEAEKLVNQRIHPQTIISGYRRALGIAQESLKKSSIESGDNIRDDLLKIARTTLGSKILSQHKEHFAQLAVDAVLRLKGSGNLDAIQIIKKLGGSMNESYLDEGFLLEKLPGMFQPRRVEKAKILIANTPMDTDKVKVFGSRVRVDGVAKVAELEAAEKLKMKEKVDKILAHNCNVFINRQLIYNYPEQLFADAKVMAIEHADFEGIERLALVLGGEIVSTFDSPQTAQFGSCDLIEEIMIGEDRLLRFSGVKLGEACSVVLRGATQQILDESERSLHDALCVLVTHVKESKTVAGAGASEILMSSAIAVEAQKVAGKEALAVEAFGRALAQLPTIICDNAGLDSAELVTRLRAEHANGRHNMGIDIEKGEVADVTKLGVIESYNVKLCMVSSAAEATEQILRVDDIIKAAPRARAQDNRPC”, the protein production result is recorded as “not failed”.

On to “MLQCGAKNVNPLERFVSSLPVAAVLPELLAALDGASQVLLSAPTGAGKSTWLPLQLLAHPGINGKIILLEPRRLAARNVAQRLAELLNEKPGDTVGYRMRAQNCVGPNTRLEVITEGVLTRMIQRDPELSGVGLVILDEFHERSLQADLALALLLDVQQGLRDDLKLLIMSA”, for which the protein production entry is on record as “failed”.

For the sequence “MLQEDLRKKAGQLFAVGFHGVVPSPEIKTLIHEYGIGGIVLFKRNIQNAMQLQLPGPMALGATHSPELAYQVGQVTGETLRFFGINMNYAPVCDINSEPLNPVIGPRSPGDDPEFVGRFASAAAQGLREQKIIPSVKHFPGHGDTAVDSHYGLPVIEKTREQLERCELIPFRRAVAEGVEAVMTAHISLPAIGDGKLPATLSADVLSILRNEMQFEGMIITDCLEMDGIRATYGTEQGAVLSLEAGSDSIMICHTYAVQVASIQKVCEAVQSGQLSASRLEEAYRRVVKLKSKFLSWDTALLTRSLDDLVTLNRKAA”, the protein production result was “failed”.

For “MLQMRTDLMAVACGRRSADLYIENGRVLNVHSGEILSGVGVAVASGRVAYVGPSRGMIGPETQFLDAEGGILVPGYVDPHAHFDNILSPRRLAEALLPLGTTMVVNDTLAVVARFGAPGLACLRAAATSLPLHFGWTVPISGWAPELEEAGYFAGLGLTDAELDVLLADETVLGTSEFLPWRRLLAGDQRLIARLDIARRHGKCCEGHNPGARADHLQVIAAAGLTDCHEALTSAEALNRLRAGLYVVLRHGPARYDLPELASLVMKEGVDRSRLMLTPDWVPPNDLAAFGHMDHPLSAAMEAGIPPLDAYRMASLNPARYFRIEGQIGSIAPGRYADILCLNDLREPRPKWVMAQGAVVARNGVPTPDWHGLDELELPAYRPSVLHASPADFRVASAGTGDVLVPAIEIMDRTVTRRIDLHLPVKDGVVSCAGEEGRVMKMAMPHPEGGFSIGFLVGVGGCLGAMSNSLASEPYHTLVIGTSDDDMAIAYNRMIELGGGVVTVQDGRIEAQLPLPLGGFMTKASAADVGAGIDAVNQWARNNGSNLENAFLTQHFLTYVGVPFFRMTPWGIYDVRKHCFLPPILNQGSEEDAL”, the protein production result is “failed”.

Take “MLQQQRTNSRGEKYVIGPTGAPLTLADLPPAETQRWVIRRKAEVVAAVRGGLLSLDEACDRYKLTNDEFLSWQQSIDRHGLAGLRTTRIQQYRLEHHHHHH”: the protein production result is “not failed”.

“MLQSINQLNPDIVVITGDLTENGFSAEYDGVKMFIDRIECKNRVLVPGNHDSKNAGYLHFEDLFENRFQTRNLGNMTIVGADSSQPDIDDGHLGRENYGWIKEAFSGENFKVFALHHHLVPIPLAGRENTVLVDAGDVLDLLNKCRVNLVLCGHCHIPHVWNLNNMLVVNAGTFCSSKTRGKTTQCFNLIQAENSEKNGNGESEKIEDGGWKVRVSRVFPQGNIEFITETVMLEHHHHHH”: the protein production entry is listed as “failed”.

As to “MLQVPKLTIIMPVYNTAQYLPRAFDALLKQIDKSFKLIVVDDGSTDNSVEVAQNYAYRFPYFKLIKKKNGGPSDARNVGMQYIDTPYVTFHDGDDWVDPGYTSFFIRAFEEHPDVNLVSCGYWMDYPDKKSRVVGRPEGGFLTRGETYLKLTNVFGSPMKGYSWNKAYKTAIIKKFHLQFDRDISLLEDQIFNVKYISVAKGVYYTQRPYYHYWQRKGSIIHQPNVKKVADNFRGNYRVWRRIIKTMLKDHEDEKMRKKLDRSPLRDSDVQ”, the protein production result is “failed”.

These data come from a protein production outcome set (Wang et al. 2014).
